# According to paper PMC8884472 (Molecular cell, 2022):
# B1: recombinant KLHL12^6xHis (natural protein, UniProt Q53G59 1-568, looked up)
# chain: MGGIMAPKDIMTNTHAKSILNSMNSLRKSNTLCDVTLRVEQKDFPAHRIVLAACSDYFCAMFTSELSEKGKPYVDIQGLTASTMEILLDFVYTETVHVTVENVQELLPAACLLQLKGVKQACCEFLESQLDPSNCLGIRDFAETHNCVDLMQAAEVFSQKHFPEVVQHEEFILLSQGEVEKLIKCDEIQVDSEEPVFEAVINWVKHAKKEREESLPNLLQYVRMPLLTPRYITDVIDAEPFIRCSLQCRDLVDEAKKFHLRPELRSQMQGPRTRARLGANEVLLVVGGFGSQQSPIDVVEKYDPKTQEWSFLPSITRKRRYVASVSLHDRIYVIGGYDGRSRLSSVECLDYTADEDGVWYSVAPMNVRRGLAGATTLGDMIYVSGGFDGSRRHTSMERYDPNIDQWSMLGDMQTAREGAGLVVASGVIYCLGGYDGLNILNSVEKYDPHTGHWTNVTPMATKRSGAGVALLNDHIYVVGGFDGTAHLSSVEAYNIRTDSWTTVTSMTTPRCYVGATVLRGRLYAIAGYDGNSLLSSIECYDPIIDSWEVVTSMGTQRCDAGVCVLREK
# B2: recombinant PEF1 (natural protein, UniProt Q9UBV8 1-284, looked up)
# chain: MASYPYRQGCPGAAGQAPGAPPGSYYPGPPNSGGQYGSGLPPGGGYGGPAPGGPYGPPAGGGPYGHPNPGMFPSGTPGGPYGGAAPGGPYGQPPPSSYGAQQPGLYGQGGAPPNVDPEAYSWFQSVDSDHSGYISMKELKQALVNCNWSSFNDETCLMMINMFDKTKSGRIDVYGFSALWKFIQQWKNLFQQYDRDRSGSISYTELQQALSQMGYNLSPQFTQLLVSRYCPRSANPAMQLDRFIQVCTQLQVLTEAFREKDTAVQGNIRLSFEDFVTMTASRML
# Tests used:
# recombinant CUL3/RBX1 = recombinant CUL3/RBX1 (UniProt Q13618 1-768; P62877 1-108); experiment: pull-down
# recombinant KLHL12^6xHis = target: B1; experiment: pull-down
# Chain of recombinant CUL3/RBX1 (Q13618 whole entry, chain 1 of 2): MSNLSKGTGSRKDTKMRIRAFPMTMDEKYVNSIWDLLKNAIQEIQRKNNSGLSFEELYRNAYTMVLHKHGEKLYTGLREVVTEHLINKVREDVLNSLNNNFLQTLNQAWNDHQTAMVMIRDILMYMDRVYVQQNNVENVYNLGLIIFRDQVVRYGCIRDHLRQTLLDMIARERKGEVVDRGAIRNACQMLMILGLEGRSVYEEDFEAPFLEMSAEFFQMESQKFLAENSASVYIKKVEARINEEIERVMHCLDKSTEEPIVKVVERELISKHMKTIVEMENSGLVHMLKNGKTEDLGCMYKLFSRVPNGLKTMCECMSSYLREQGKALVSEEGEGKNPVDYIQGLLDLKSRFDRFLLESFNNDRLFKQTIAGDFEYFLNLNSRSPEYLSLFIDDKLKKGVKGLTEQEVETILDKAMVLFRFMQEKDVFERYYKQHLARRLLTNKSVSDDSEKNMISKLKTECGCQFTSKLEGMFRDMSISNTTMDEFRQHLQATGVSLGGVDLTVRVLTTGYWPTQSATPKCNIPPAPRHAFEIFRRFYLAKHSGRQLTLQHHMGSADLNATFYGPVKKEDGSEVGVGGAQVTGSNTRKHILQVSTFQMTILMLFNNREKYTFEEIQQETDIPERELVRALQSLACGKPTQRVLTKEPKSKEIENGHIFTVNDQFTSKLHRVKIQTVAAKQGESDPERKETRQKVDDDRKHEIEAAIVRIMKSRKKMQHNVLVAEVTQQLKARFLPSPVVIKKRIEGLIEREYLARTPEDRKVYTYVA
# Chain of recombinant CUL3/RBX1 (P62877 whole entry, chain 2 of 2): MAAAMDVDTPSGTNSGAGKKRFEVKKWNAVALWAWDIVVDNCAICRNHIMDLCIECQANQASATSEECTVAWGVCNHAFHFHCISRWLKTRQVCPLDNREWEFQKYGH
binding result (recombinant CUL3/RBX1),binding result (recombinant KLHL12^6xHis),Binder
binds,,B1
,binds,B2
